The sequences below were run on Escherichia coli TOP10 (assay: shrunken log2 fold change of peptide-encoding DNA abundance (4.5 h post-induction vs induction); higher = less antimicrobial activity (less host growth inhibition)). Conditions: time post-induction: 4.5 h; library: site-saturation at positions 5, 18, 19, 20.
RRIRKRPPRLPRPRPRPIWHPRP was tested, and the “shrunken log2 fold change” value was 0.248.
With RRIRIRPPRLPRPRPRPCIPPRP the “shrunken log2 fold change” value was -0.307.
In the case of RRIRFRPPRLPRPRPRPTHDPRP, the “shrunken log2 fold change” value is reported as 0.241.
In the case of RRIRFRPPRLPRPRPRPCCSPRP, the “shrunken log2 fold change” value is reported as -0.139.
In the case of RRIRSRPPRLPRPRPRPLWTPRP, the “shrunken log2 fold change” value is reported as 0.0886.
With RRIRFRPPRLPRPRPRPANSPRP the “shrunken log2 fold change” value was -0.448.
In the case of RRIRQRPPRLPRPRPRPHSEPRP, the “shrunken log2 fold change” value is reported as -0.0749.
With RRIRDRPPRLPRPRPRPKVVPRP the “shrunken log2 fold change” value was -0.01.
For RRIRRRPPRLPRPRPRPEEPPRP, the “shrunken log2 fold change” value was 0.24.
RRIRVRPPRLPRPRPRPCWMPRP was tested, and the “shrunken log2 fold change” value was -0.46.
With RRIRPRPPRLPRPRPRPVCSPRP the “shrunken log2 fold change” value was -0.168.
In the case of RRIRQRPPRLPRPRPRPSRVPRP, the “shrunken log2 fold change” value is reported as -0.00679.
RRIRYRPPRLPRPRPRPWWRPRP was tested, and the “shrunken log2 fold change” value was -0.0462.
RRIRGRPPRLPRPRPRPYADPRP was tested, and the “shrunken log2 fold change” value was 0.0582.
In the case of RRIRHRPPRLPRPRPRPMFNPRP, the “shrunken log2 fold change” value is reported as -0.608.
With RRIRFRPPRLPRPRPRPRCCPRP the “shrunken log2 fold change” value was 0.164.
With RRIRDRPPRLPRPRPRPLWLPRP the “shrunken log2 fold change” value was 0.399.
With RRIRFRPPRLPRPRPRPTQRPRP the “shrunken log2 fold change” value was 0.98.
RRIRDRPPRLPRPRPRPHQGPRP was tested, and the “shrunken log2 fold change” value was -0.00184.
In the case of RRIRHRPPRLPRPRPRPLSVPRP, the “shrunken log2 fold change” value is reported as -0.136.
In the case of RRIRFRPPRLPRPRPRPALPPRP, the “shrunken log2 fold change” value is reported as 0.0544.
In the case of RRIRGRPPRLPRPRPRPTFKPRP, the “shrunken log2 fold change” value is reported as 0.538.
For RRIRCRPPRLPRPRPRPQIEPRP, the “shrunken log2 fold change” value was -0.335.
For RRIRTRPPRLPRPRPRPHVEPRP, the “shrunken log2 fold change” value was 0.0236.
RRIRGRPPRLPRPRPRPSHNPRP was tested, and the “shrunken log2 fold change” value was -0.189.
For RRIRVRPPRLPRPRPRPHRGPRP, the “shrunken log2 fold change” value was -0.0736.
RRIRKRPPRLPRPRPRPMVHPRP was tested, and the “shrunken log2 fold change” value was -0.079.
RRIRNRPPRLPRPRPRPITWPRP was tested, and the “shrunken log2 fold change” value was -0.0587.
With RRIRRRPPRLPRPRPRPMSRPRP the “shrunken log2 fold change” value was -0.0357.
For RRIRCRPPRLPRPRPRPLPRPRP, the “shrunken log2 fold change” value was 0.612.
For RRIRARPPRLPRPRPRPITKPRP, the “shrunken log2 fold change” value was -0.0507.
With RRIRRRPPRLPRPRPRPLEKPRP the “shrunken log2 fold change” value was 0.477.
For RRIRVRPPRLPRPRPRPFVCPRP, the “shrunken log2 fold change” value was -0.744.
For RRIRQRPPRLPRPRPRPIWEPRP, the “shrunken log2 fold change” value was 0.0296.
In the case of RRIRKRPPRLPRPRPRPGRHPRP, the “shrunken log2 fold change” value is reported as 0.227.
For RRIRIRPPRLPRPRPRPDTTPRP, the “shrunken log2 fold change” value was -0.243.
RRIRNRPPRLPRPRPRPRSKPRP was tested, and the “shrunken log2 fold change” value was 0.0945.
With RRIRFRPPRLPRPRPRPYMMPRP the “shrunken log2 fold change” value was -0.34.
RRIRGRPPRLPRPRPRPFGHPRP was tested, and the “shrunken log2 fold change” value was -0.164.
In the case of RRIRLRPPRLPRPRPRPQPVPRP, the “shrunken log2 fold change” value is reported as 0.0205.
RRIRDRPPRLPRPRPRPNETPRP was tested, and the “shrunken log2 fold change” value was -0.023.
RRIRGRPPRLPRPRPRPVNPPRP was tested, and the “shrunken log2 fold change” value was 0.127.
In the case of RRIRVRPPRLPRPRPRPVKIPRP, the “shrunken log2 fold change” value is reported as -0.29.
In the case of RRIRKRPPRLPRPRPRPTYHPRP, the “shrunken log2 fold change” value is reported as -0.283.
With RRIRTRPPRLPRPRPRPIPSPRP the “shrunken log2 fold change” value was -0.236.
RRIRGRPPRLPRPRPRPPCYPRP was tested, and the “shrunken log2 fold change” value was 0.265.
For RRIRWRPPRLPRPRPRPHHTPRP, the “shrunken log2 fold change” value was -0.313.
For RRIRDRPPRLPRPRPRPCPDPRP, the “shrunken log2 fold change” value was -0.312.
With RRIRNRPPRLPRPRPRPPFWPRP the “shrunken log2 fold change” value was 0.196.
RRIRSRPPRLPRPRPRPRYVPRP was tested, and the “shrunken log2 fold change” value was -0.597.
With RRIRCRPPRLPRPRPRPHKIPRP the “shrunken log2 fold change” value was -0.217.
With RRIRERPPRLPRPRPRPDLVPRP the “shrunken log2 fold change” value was -0.022.
RRIRARPPRLPRPRPRPPSNPRP was tested, and the “shrunken log2 fold change” value was 0.195.
RRIRYRPPRLPRPRPRPYPTPRP was tested, and the “shrunken log2 fold change” value was -0.282.
In the case of RRIRHRPPRLPRPRPRPMNGPRP, the “shrunken log2 fold change” value is reported as -0.287.
For RRIRVRPPRLPRPRPRPFNRPRP, the “shrunken log2 fold change” value was -0.0378.
RRIRDRPPRLPRPRPRPEQLPRP was tested, and the “shrunken log2 fold change” value was 0.104.
In the case of RRIRARPPRLPRPRPRPVKWPRP, the “shrunken log2 fold change” value is reported as 3.06.
In the case of RRIRTRPPRLPRPRPRPEPKPRP, the “shrunken log2 fold change” value is reported as 0.376.
With RRIRWRPPRLPRPRPRPATIPRP the “shrunken log2 fold change” value was -0.0366.

— the supplement of paper PMC9112550, “Optimization of the antimicrobial peptide Bac7 by deep mutational scanning” (BMC Biology, 2022)
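Further: peptides expressed intracellularly from a pBAD plasmid library in pooled LB shake-flask culture, induced with 0.3% L-arabinose, DNA abundance read by NGS, three biological replicates, DESeq2 with apeglm shrinkage.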
